# Reference: paper PMC3725505
# Experiments:
# [1] = target: Kelch domain of human Keap1 (residues 321-609) (human) (UniProt Q14145); test: ITC
# [2] = target: Keap1 (Kelch domain) Kelch domain, 321-609 (UniProt Q14145); test: isothermal titration calorimetry; conditions: reference: unphosphorylated WTX 20-mer peptide; sites S286
# Chain of Kelch domain of human Keap1 (residues 321-609) (human) (Q14145 321-609): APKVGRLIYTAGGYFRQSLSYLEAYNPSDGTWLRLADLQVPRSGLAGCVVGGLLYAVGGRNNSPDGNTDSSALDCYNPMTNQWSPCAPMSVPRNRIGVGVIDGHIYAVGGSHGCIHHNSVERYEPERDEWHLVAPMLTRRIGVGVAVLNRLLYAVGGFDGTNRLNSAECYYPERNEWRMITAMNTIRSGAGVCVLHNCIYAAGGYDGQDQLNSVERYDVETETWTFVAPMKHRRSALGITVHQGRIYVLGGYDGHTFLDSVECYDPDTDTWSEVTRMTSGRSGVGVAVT
Substance,Kd [1],dH [1],stoichiometry N [1],KD [2]
FAC1 peptide (20-mer),1100 nM,-15.1 kcal/mol,,
"WTX peptide (20-mer, unphosphorylated)",250 nM,-18 kcal/mol,1.04,

# More lines, now with the values ahead:
Kd [1],dH [1],stoichiometry N [1],KD [2],Substance
,-19.3 kcal/mol,1.01,,PALB2 peptide (20-mer)
230 nM,-19.1 kcal/mol,1.07,,PGAM5 peptide (20-mer)
,,,weaker; reference 0.25 ± 0.02,WTX Kelch-binding region (from UniProt Q5JTC6) WTX pS286 20-mer peptide
